In the assay the target is T1, latent 65 kDa heparanase (Hpa65) (UniProt Q9Y251 36-543, limits assumed).
T1 construct: Single-chain latent 65 kDa form coated on the ELISA plate; also called recombinant 65 kDa latent pro-heparanase; pro-heparanase
T1 sequence (looked up): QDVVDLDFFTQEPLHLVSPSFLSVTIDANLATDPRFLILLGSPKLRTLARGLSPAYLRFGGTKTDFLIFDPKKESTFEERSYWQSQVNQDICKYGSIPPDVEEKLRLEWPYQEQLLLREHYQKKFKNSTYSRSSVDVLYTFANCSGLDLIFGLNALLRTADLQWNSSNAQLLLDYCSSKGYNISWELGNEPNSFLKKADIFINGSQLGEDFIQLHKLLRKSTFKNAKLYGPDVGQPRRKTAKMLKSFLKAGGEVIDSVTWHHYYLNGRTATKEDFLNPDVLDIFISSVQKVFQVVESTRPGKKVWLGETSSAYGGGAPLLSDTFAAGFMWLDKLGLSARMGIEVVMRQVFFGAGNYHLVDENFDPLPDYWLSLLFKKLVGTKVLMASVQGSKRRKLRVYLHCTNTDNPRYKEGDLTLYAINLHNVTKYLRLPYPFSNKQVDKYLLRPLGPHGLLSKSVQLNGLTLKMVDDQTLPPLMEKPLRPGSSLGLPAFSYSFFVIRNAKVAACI
Kind of assay: ELISA, antibody titrated on plate coated with latent 65 kDa heparanase. On the procedure: An ELISA method was applied to characterize the preferential recognition of heparanase by mAb A54 vs. control mouse IgG (FIG. 2A). For this purpose, microtiter 96-well plate was coated with latent 65 kDa heparanase (Hpa65). Purified (protein G Sepharose) mAb A54 or control mouse IgG were then added at the indicated concentrations and the extent of binding to the immobilized heparanase was determined by ELISA. […] Next, the purified A54 mAb was subjected SDS-PAGE (FIG. 2B) and Western blot (FIG. 2C, Secondary antibody: Goat Anti-Mouse Kappa-HRP) analyses to further characterize the purity, molecular weight and isotype of the antibody light and heavy chains. Lanes M1 and M2: Protein Marker; Lane 1: Reducing condition; Lane 2: Non-reducing condition; Lane P: Mouse IgG1, Kappa as a positive control. (Ab: antibody: Goat Anti-Mouse IgG-HRP). Briefly, mAb A54 was expressed in 293F cells applying the pcDNA3.4 expression vector and serum free (Expi293F) medium. The antibody isotype was characterized as IgG1-Kappa.
(In general: ELISA stands for enzyme-linked immunosorbent assay.)

B1: mAb A54 (antibody, IgG1, V domains shown)
VH: QVQLQQSGAELAKPGASVRMSCKASGYTFTNYWMHWVKQRPGQGLEWIGYINPTTGYTEYNQKFKDKATLTADKSSSTAYMQLSSLTSEDSAVYYCARGGAGYDYDEDYAMDYWGQGTSVTVSS
VL: DIVLTQSPASLAVSLGQRATISCRASESVEYFGTSYMNWYQQKPGQPPKLLIYLASILESGIPARFSGSGSGTDFTLNIHPVEEEDAATYYCQQSNEDPYTFGGGTKLEIK
notes: Murine monoclonal antibody, IgG1-Kappa; Purified on protein G from hybridoma, also expressed in 293F cells; also called A54 mAb; A54 antibody
As a reminder, the IC50 is the point on the concentration scale where inhibition reaches its midpoint. Read a high IC50 as a need for much substance. Molecule B1 registered an IC50 of 0.45 nM.
